Article PMC8878318, “DogCatcher allows loop-friendly protein-protein ligation” (Cell Chemical Biology, 2022)

Columns and labels:
[1] = target: T1, Gre2p (Saccharomyces cerevisiae, UniProt Q12068); test: NADPH oxidation, absorbance at […] nm; assay type: biochemical; conditions: 1.5 mM isovaleraldehyde; 0.25 mM NADPH; 100 mM potassium phosphate pH 7.4; 25 °C
T1 construct: gene GRE2; wild-type Gre2p without loop insertion, pET28-Gre2p synthetic codon-optimised gene, expressed in E. coli BL21 DE3 RIPL, Ni-NTA purified
T1 sequence (Q12068 1-342): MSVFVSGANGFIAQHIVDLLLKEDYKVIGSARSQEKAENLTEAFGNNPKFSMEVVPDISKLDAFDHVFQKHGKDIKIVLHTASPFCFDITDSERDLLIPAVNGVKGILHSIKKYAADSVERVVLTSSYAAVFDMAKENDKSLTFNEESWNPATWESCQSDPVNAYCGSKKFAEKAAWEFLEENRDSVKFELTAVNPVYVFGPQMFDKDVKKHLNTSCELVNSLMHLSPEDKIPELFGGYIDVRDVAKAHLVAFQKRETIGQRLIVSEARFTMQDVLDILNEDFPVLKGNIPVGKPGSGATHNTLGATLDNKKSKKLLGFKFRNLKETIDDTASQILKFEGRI

[2] = target: HaloTag7SS-DogTag (Streptococcus pneumoniae TIGR4); test: isopeptide bond formation followed by SDS-PAGE with Coomassie densitometry; reaction toward completion: 10 or 20 μM DogCatcher with 10 or 20 μM HaloTag7SS-DogTag, PBS pH 7.5, 25°C, 200 min
[3] = target: sfGFP-DogTag Loop A (Streptococcus pneumoniae TIGR4); test: isopeptide bond formation followed by SDS-PAGE with Coomassie densitometry; 5 μM of each protein in solution, PBS pH 7.5 (pH 7.4 in p-0004), 25°C; second-order rate constant from 1/[Catcher] against time
[4] = target: Gre2p-DogTag Loop B (Saccharomyces cerevisiae | Streptococcus pneumoniae TIGR4) (UniProt Q12068); test: as above
[5] = target: AviTag-DogTag-MBP (Streptococcus pneumoniae TIGR4); test: as above
[6] = target: AviTag-R2Tag-MBP (Streptococcus pneumoniae TIGR4); test: as above
[7] = target: sfGFP-SpyTag003 Loop A; test: as above
[8] = target: Gre2p-SpyTag003 Loop B (Saccharomyces cerevisiae) (UniProt Q12068); test: as above

Compound: NC(=O)C1=CN([C@@H]2O[C@H](COP(=O)(O)OP(=O)(O)OC[C@H]3O[C@@H](n4cnc5c(N)ncnc54)[C@H](OP(=O)(O)O)[C@@H]3O)[C@@H](O)[C@H]2O)C=CC1 [NADPH]
- NADPH oxidation, absorbance at 340 nm [1]: Reduction of isovaleraldehyde to isoamyl alcohol by Gre2p is nicotinamide adenine dinucleotide phosphate (NADPH) dependent

Compound: DogCatcher (designed binder)
- percent of DogCatcher reacted (2-fold excess of HaloTag7SS-DogTag) [2]: 98%
- percent of HaloTag7SS-DogTag reacted (2-fold excess of DogCatcher) [2]: 98%
- second-order rate constant of covalent reaction [3]: 1000 M⁻¹ s⁻¹
- second-order rate constant of covalent reaction [4]: 850 M⁻¹ s⁻¹
- second-order rate constant of covalent reaction [5]: 760 M⁻¹ s⁻¹

Compound: R2Catcher (domain or fragment)
- second-order rate constant of covalent reaction [5]: 30 M⁻¹ s⁻¹
- second-order rate constant of covalent reaction [6]: 3 M⁻¹ s⁻¹

Compound: SpyCatcher003 (designed binder)
- second-order rate constant of covalent reaction [7]: 87 M⁻¹ s⁻¹
- second-order rate constant of covalent reaction [8]: 156 M⁻¹ s⁻¹
